In patent publication US20260116951A1 (DUCENTIS BIOTHERAPEUTICS, published 2026):

How the values were obtained:
Human CD200R1L = molecular target: T1, Human CD200R1L (human, UniProt Q6Q8B3 24-239, limits assumed); test: SPR (BIAcore)
T1 construct: nothing is said of the reagent
T1 sequence (looked up): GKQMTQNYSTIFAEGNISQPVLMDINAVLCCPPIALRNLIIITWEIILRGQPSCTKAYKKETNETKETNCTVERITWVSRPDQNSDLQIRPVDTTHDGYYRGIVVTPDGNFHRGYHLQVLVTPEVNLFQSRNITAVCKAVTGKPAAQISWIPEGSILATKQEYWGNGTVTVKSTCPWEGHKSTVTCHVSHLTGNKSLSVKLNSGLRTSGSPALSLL

[1] = molecular target: T2, Mouse CD200R protein (Creative Biomart CD200R1-3280M) (mouse, UniProt Q9ES57 26-238); test: SPR (BIAcore)
T2 construct: also called Murine CD200R1; murine CD200R
T2 sequence (looked up): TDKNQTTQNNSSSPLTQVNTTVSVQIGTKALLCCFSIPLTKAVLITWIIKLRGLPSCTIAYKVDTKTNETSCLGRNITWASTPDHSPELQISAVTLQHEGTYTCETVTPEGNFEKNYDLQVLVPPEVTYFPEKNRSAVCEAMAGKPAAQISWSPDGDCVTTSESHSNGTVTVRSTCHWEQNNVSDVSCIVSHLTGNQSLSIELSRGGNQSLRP

[2] = molecular target: T3, Recombinant Human CD200R, His-tagged (Creative Biomart CD200R1-320H) (human, UniProt Q8TD46 27-266); test: SPR, CD200R flowed over immobilized CD200-Fc, 25 C, 1:1 fit, mean of 2 experiments with standard deviation
T3 construct: Bought; also called human CD200 receptor; not shown: His tag
T3 sequence (looked up): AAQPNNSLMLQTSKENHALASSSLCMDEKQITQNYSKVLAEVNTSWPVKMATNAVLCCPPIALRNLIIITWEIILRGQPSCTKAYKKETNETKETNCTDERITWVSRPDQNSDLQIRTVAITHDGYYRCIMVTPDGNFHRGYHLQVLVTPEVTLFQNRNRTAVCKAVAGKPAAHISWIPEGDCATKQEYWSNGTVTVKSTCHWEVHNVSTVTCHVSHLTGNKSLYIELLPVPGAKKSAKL
Protocol: (§1) For human CD200 constructs: anti-human Fc (GE Healthcare) was covalently immobilized on a BIAcore CM5 sensor chip (Cytiva, BR100530) by amine coupling using a Cytiva kit (BR100839) following the manufacturer's instructions, targeting immobilization of 8,000-11,000 RU. CD200-Fc proteins were diluted to 0.5 μg/mL to 4 μg/mL in running Buffer (1×HBS-EP+pH7.4 (Cytiva BR100669), HEPES Buffered Saline pH 7.4 containing 3 mM EDTA and 0.05% v/v Surfactant P20) and flowed for 25 to 100 seconds at 10 μL/min over the immobilized Anti-Human IgG Fc, with a stabilization time of 60 seconds. Between 35 and 250 RUs of CD200-Fc were captured, with higher RUs used for cynomolgus CD200R binding experiments. […] Analysis temperature was 25° C. This was followed by regeneration of the surface with 30-90 second pulse of 3M MgCl₂ flowed at 30 L/min flow rate followed by stabilization of the surface with 60 second flow of running buffer.
Curves obtained were fitted to 1:1 Langmuir binding model by setting Rmax and RI as local parameters. Rate equations using standard parameters (e.g. ligand concentration, time) were used for iterative curve fitting. […] Means of 2 experiments carried out on the same day are shown with standard deviation. Residue numbering for CD200 proteins refers to the pre-protein, containing a signal peptide which is cleaved during insertion into the endoplasmic reticulum.

[3] = molecular target: T4, Recombinant Cyno CD200R, His-tagged (Creative Biomart CD200R1-3483C) (cynomolgus monkey); test: SPR (BIAcore), DS-118 captured (0.5 ug/mL), CynoCD200R1 flowed at 1000 nM to 62.5 nM, 25 C, 1:1 Binding model, run 2
T4 construct: Bought; also called cynomolgus CD200R1; cynomolgus CD200R
Protocol: as §1
(§2) For mouse CD200 constructs, muCD200R-Fc (Creative Biomart CD200R1-458M) diluted to 1 μg/mL in running buffer was flowed over the immobilized Anti-Human IgG Fc, with CD200 monomers serially diluted and flowed over captured CD200R. Other details were as above. Data analysis: experimental sensorgrams were analyzed in BIAevaluation software (GE Healthcare). The curves obtained were fitted to 1:1 Langmuir binding model by setting Rmax and RI as local parameters. Rate equations using standard parameters (e.g. ligand concentration, time) were used for iterative curve fitting. Closeness of fit was determined by algorithms provided by the manufacturer in the BIAevaluation software, and data accepted if the Chi² value was less than 10% of Rₘₐₓ, and the U value was less than or equal to 15.

[4] = molecular target: T4, Recombinant Cyno CD200R, His-tagged …; test: SPR (BIAcore T200), CD200-Fc captured on anti-human Fc, cyno CD200R flowed, 25 C, 1:1 fit
Protocol: The experiments were performed on a GE Healthcare BIAcore T200. Human, cynomolgus and mouse CD200R proteins were purchased from Creative Biomart (CD200R1-320H, CD200R1-3483C, CD200R1-3280M). All measurements were performed in duplicate.
For human CD200 constructs: anti-human Fc (GE Healthcare) was covalently immobilized on a BIAcore CM5 sensor chip (Cytiva, BR100530) by amine coupling using a Cytiva kit (BR100839) following the manufacturer's instructions, targeting immobilization of 8,000-11,000 RU. CD200-Fc proteins were diluted to 0.5 μg/mL to 4 μg/mL in running Buffer (1×HBS-EP+pH7.4 (Cytiva BR100669), HEPES Buffered Saline pH 7.4 containing 3 mM EDTA and 0.05% v/v Surfactant P20) and flowed for 25 to 100 seconds at 10 μL/min over the immobilized Anti-Human IgG Fc, with a stabilization time of 60 seconds. […]
as §2, with “Other details were as above.” left out, “The curves obtained were fitted to 1:1 Langmuir binding model by setting Rmax and RI as local parameters. Rate equations using standard parameters (e.g. ligand concentration, time) were used for iterative curve fitting.” left out

Cyno PBMCs = molecular target: T5, Cyno PBMCs; test: Flow cytometry, % binding on cynomolgus PBMCs gated on live cells, 1 hour at 37 C, anti-human secondary antibody; the target protein on the cells is not named
T5 construct: No receptor was assigned; also called cynomolgus monkey PBMCs, gated on live cells
Protocol: PBMC cells were re-suspended with a density of 0.1 million cells per assay point, with 50 μL FACS buffer (1×PBS+2% FBS). Dilutions of huCD200-Fc in 50 μL were added, starting at 10 μg/mL with 3-fold dilutions up to 10 concentrations with FACS buffer, and incubated for 1-hour at 37° C. At the end of each time point, cells were collected and washed (addition of 200 μL FACS buffer and centrifugation at 1400 RPM). 10 μg/mL of anti-human secondary antibody (Abcam Ab98596) was added together with excess Fc block (Innovex Biosciences no. NB309), and incubated for 30 minutes at 4° C. Cells were washed post incubation and stained to check viability (1 μL dye per million cells per mL 1×PBS, ThermoFisher C34557A) for 20 minutes at 4° C. Cells were washed and fixed with Fixation buffer (100 μL per test, BD Sciences 554655) at 4° C. for 20 minutes. Post incubation, cells were washed and the pellet was re-suspended in FACS buffer (100 μL per test) for data acquisition on the flow cytometer.

[5] = molecular target: T3, Recombinant Human CD200R, His-tagged …; test: SPR (BIAcore)
Protocol: as §1, with “This was followed by regeneration of the surface with 30-90 second pulse of 3M MgCl₂ flowed at 30 L/min flow rate followed by stabilization of the surface with 60 second flow of running buffer.” left out
as §2, with “Other details were as above.” left out, “The curves obtained were fitted to 1:1 Langmuir binding model by setting Rmax and RI as local parameters. Rate equations using standard parameters (e.g. ligand concentration, time) were used for iterative curve fitting.” left out

binding result (Human CD200R1L): no binding
binding result [1]: no binding
Kd [3]: 204 nM
koff [3]: 0.0596 s⁻¹
kon [3]: 292000 M⁻¹ s⁻¹
t½ [4]: 18.2 s
EC50 (Cyno PBMCs): 1.96 µg/mL
B1: DS-118 (mutated human CD200-Fc fusion protein, K130Y, I131Y, IgG4 S228P Fc) (Fc fusion)
chain: QVQVVTQDEREQLYTPASLKCSLQNAQEALIVTWQKKKAVSPENMVTFSENHGVVIQPAYKDKINITQLGLQNSTITFWNITLEDEGCYMCLFNTFGFGYYSGTACLTVYVQPIVSLHYKFSEDHLNITCSATARPAPMVFWKVPRSGIENSTVTLSHPNGTTSVTSILHIKDPKNQVGKEVICQVLHLGTVTDFKQTVNKGPPCPPCPAPEFLGGPSVFLFPPKPKDTLMISRTPEVTCVVVDVSQEDPEVQFNWYVDGVEVHNAKTKPREEQFNSTYRVVSVLTVLHQDWLNGKEYKCKVSNKGLPSSIEKTISKAKGQPREPQVYTLPPSQEEMTKNQVSLTCLVKGFYPSDIAVEWESNGQPENNYKTTPPVLDSDGSFFLYSRLTVDKSRWQEGNVFSCSVMHEALHNHYTQKSLSLSLGK
notes: also called mutated CD200-Fc; mutant CD200-Fc
Kd [2]: 1.3 nM
fold greater affinity than wild-type CD200-Fc (DS-155) [5]: ~137 fold
